Assay results published in patent publication US10709762B2, “Use of M-CSF for preventing or treating myeloid cytopenia and related complications” (priority 2013, dated 2020).

How the values were obtained:
[1] = system: PU.1 expression in sorted HSC; assay: Quantitative RT-PCR of PU.1 expression in sorted HSC in culture; type: cell-based, mice; conditions: 16 h in culture with cytokine, 100 ng/ml
Method: (§1) CD150+CD34− KSLF HSC or CD150+CD34− CD48− KSLF HSC (single cells) were sorted into S-clone SF-03 medium (Sanko Jyunyaku) with 10% FBS supplemented with 100 U/ml penicillin and […] streptomycin (both Invitrogen) and cultivated in uncoated U-Shape 96 well plates (Greiner) in 100 μl SCM, 20 ng/ml rSCF, 50 ng/ml rTPO+/−100 ng/ml rM-CSF or 100 ng/ml rGM-CSF or 100 ng/ml rG-CSF. All cytokines were murine and from PeproTech. Cell viability was analyzed by AnnexinV and Propidium iodide FACS staining^35.
Total RNA was isolated and reverse transcribed with μMACS™ ONE-STEP T7 template kit (Miltenyi Biotec) and analysed by quantitative real-time PCR using TAQMAN® Universal PCR Master Mix and a 7500 Fast Real Time PCR System sequence detection system (both Applied Biosystem), following the manufacturers' instructions.

CD150hi HSC = assay: In vitro culture of HSC, proliferation and survival; type: cell-based, mice; conditions: culture in the presence of M-CSF
Method: as §1

single HSC = assay: Single cell gene expression profiling of HSC (nanofluidic real time PCR); type: cell-based, mice; conditions: 16 h culture in the presence of M-CSF
Method: as §1
Single cells were sorted using the autoclone module on a FACSARIA™ III sorter (Becton-Dickinson) directly into 96 wells plate in the CELLS DIRECT™ Reaction Mix (Invitrogen). Individual cell lysis, cDNA synthesis and amplification was performed according to FLUIDIGM Advanced Development Protocol and single cell microfluidic real time PCR using Dynamic Array IFCs (BIOMARK™ FLUIDIGM) was performed by a trained technician of FLUIDIGM Inc. Preamplified products (22 cycles) were diluted 5-fold prior to analysis with Universal PCR Master Mix and inventoried TAQMAN® gene expression assays (ABI) in 96.96 DYNAMIC ARRAY™ on a BIOMARK™ system (FLUIDIGM). Ct values were calculated from the system's software (BIOMARK™ Real-time PCR Analysis; FLUIDIGM) and filtered according to a set of quality control rules outlined below.

[2] = system: endogenous PU.1 protein in single HSC; assay: Intra-splenic injection of CFSE-labelled HSC, PU.1 immunofluorescence; type: in vivo, mice; conditions: M-CSF receptor deficient HSC
Method: For analysis of HSC in vivo, 1500 to 7000 FACS sorted CD150^+ CD34^− KSLF HSC were stained 10 min at 37° C. with 3 μM CFSE (Invitrogen) in PBS/0.5% BSA, washed 3× in PBS/0.5% BSA and injected in 30 μl PBS (containing or not 1 μg of isotype control or AFS98 α-M-CSFR antibody^26 or 2 μM GW2580, 10 μM Ly29400, 10 μM PD98059 or 2 μM SU6656 inhibitors in 0.9% DMSO) into the spleen of anesthetized mice. After 24 h spleens were embedded in OCT (Tissue-Tek, Sakura) and frozen at −80° C. Cryostat sections (5 μm) were prepared from the entire organ, dried and fixed 10 min in 4% PFA/PBS at room temperature (RT) and every 10th section was further processed. After washes in PBS, slides were blocked for 1 hour at RT in PBS/2% BSA/1% Donkey serum/1% FCS/0.1% saponin, incubated for 36 h at 4° C. with anti-PU.1 polyclonal antibody (Santa Cruz) in PBS/0.05% saponin (1:50), washed and incubated with secondary Alexa 546-donkey-anti-rabbit antibody (Molecular probes) in PBS/0.05% saponin (1:500). All immunofluorescence samples were mounted with ProLong Gold DAPI antifade (Molecular probes) and analyzed by multifluorescent microscopy on a Zeiss Axioplan 2. All CFSE+ cells were analysed for PU.1 expression up to ≥30 or ≥50 cells as indicated. Cell counts and staining were verified by a second trained microscopist blinded to sample identity. […]

HSC = assay: Competitive transplantation of M-CSF primed HSC, blood cell contribution; type: in vivo
Method: CD45.1 and C57Bl/6 mice were obtained from Charles River. PU.1-GFP^31 M-CSFR^−/−27 and PU.1^fl/fl 32 mice have been described. Age- and sex-matched CD45.1 recipients that were reconstituted as described^3 with CD45.2 foetal liver from wt or M-CSFR^−/− embryos^27 and PU.1^fl/fl or PU.1^fl/fl::MxCre bone marrow, were used to isolate CD150+CD34− KSLF HSC not earlier than 8 weeks after reconstitution. For in vivo injections the 10 μg/mouse M-CSF, 5 mg/kg LPS (055:B5 E. coli) or sorted cells were injected in 100 μl of PBS into the retro-orbital sinus. For HSC transplantation 400 CD150+CD34− KSLF HSC were sorted from CD45.2 mice and mixed with 100.000 Lin^+ Sca^− CD45.1 carrier cells prior to injection into sub-lethally irradiated (4.5 Gy) CD45.1 recipient mice. For competitive transplantations, 1300 CD150+, CD34-KSLF HSC were isolated 16 h after control or 10 μg M-CSF injection from actin-GFP CD45.2 mice^33, mixed with equal numbers of CD45.2 competitor HSC and injected with 300.000 Lin^+ Sca^− RC-lysed CD45.1 carrier cells into sub-lethally irradiated (4.5 Gy) CD45.1 recipients. Contribution to platelets, CD19+ B-cells and CD11b+ myeloid cells was analysed after 4 and 6 weeks in the blood from mice with at least 5% GFP+ donor cells. For PU.1 deletion PU.1^fl/fl or PU.1^fl/fl::MxCre reconstituted mice were intra-peritoneally injected with 5 μg/g Polyinosinic:polycytidylic acid 7 and 9 days prior to control (PBS) or 10 μg M-CSF injection. All mouse experiments were performed under specific pathogen-free conditions in accordance with institutional guidelines.

B1: M-CSF: recombinant murine macrophage colony stimulating factor from PeproTech, used in Example 1 (protein, UniProt P07141 33-552, looked up)
Macrophage colony-stimulating …: KEVSEHCSHMIGNGHLKVLQQLIDSQMETSCQIAFEFVDQEQLDDPVCYLKKAFFLVQDIIDETMRFKDNTPNANATERLQELSNNLNSCFTKDYEEQNKACVRTFHETPLQLLEKIKNFFNETKNLLEKDWNIFTKNCNNSFAKCSSRDVVTKPDCNCLYPKATPSSDPASASPHQPPAPSMAPLAGLAWDDSQRTEGSSLLPSELPLRIEDPGSAKQRPPRSTCQTLESTEQPNHGDRLTEDSQPHPSAGGPVPGVEDILESSLGTNWVLEEASGEASEGFLTQEAKFSPSTPVGGSIQAETDRPRALSASPFPKSTEDQKPVDITDRPLTEVNPMRPIGQTQNNTPEKTDGTSTLREDHQEPGSPHIATPNPQRVSNSATPVAQLLLPKSHSWGIVLPLGELEGKRSTRDRRSPAELEGGSASEGAARPVARFNSIPLTDTGHVEQHEGSSDPQIPESVFHLLVPGIILVLLTVGGLLFYKWKWRSHRDPQTLDSSVGRPEDSSLTQDEDRQVELPV
PU.1 expression in FACS purified HSC [1]: increased PU.1 expression
proliferation or survival advantage of cultured CD150hi HSC (CD150hi HSC): no proliferation or survival advantage
cells with a myeloid gene expression signature (single HSC): strong increase
number of PU.1+ cells (single HSC): doubling
PU.1 activation in M-CSFR-/- HSC, M-CSF stimulated versus control recipients [2]: no higher activation of PU.1
long-term multi-lineage contribution (HSC): did not compromise
myeloid contribution compared to platelet and lymphoid contribution in the blood (HSC; after 6 weeks): re-equilibrated
myeloid contribution compared to platelet and lymphoid contribution in the blood (HSC; at 4 weeks): myeloid advantage
